US6531296

Target: T1, GST-RbC, Rb fusion protein encoding amino acids 780-928 (COOH-terminal domain only) (UniProt P06400)
T1 sequence (looked up): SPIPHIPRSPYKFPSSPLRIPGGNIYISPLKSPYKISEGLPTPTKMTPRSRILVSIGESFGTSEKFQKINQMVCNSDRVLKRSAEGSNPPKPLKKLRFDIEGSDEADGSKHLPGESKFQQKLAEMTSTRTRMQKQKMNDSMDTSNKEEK
Experiment: in vitro translated Rak on GST-RbC beads, SDS-PAGE and autoradiography (FIG. 5B, upper panel)

fold less binding than to the RbABC fusion protein: 5 fold less
B1: Rak protein (p54^rak), full-length nuclear tyrosine kinase (enzyme)
chain: MSNICQRLWEYLEPYLPCLSTEADKSTVIENPGALCSPQSQRHGHYFVALFDYHAPTAEELSFRAGDKLQVLDTLHEGWWFARHLEKRRDGSSQQLQGYIPSNYVAEDRSLQAEAWFFGAIRRSDAEKQLLYSENKTGSFLIRESESQKGEFSLSVLDGAVVKHYRIKRLDEGGFFLTRRRIFSTLNEFVSHYTKTSDGLCVKLGKPCLKIQVPAPFDLSYKTVDQWEIDRNSIQLLKRLGSGQFGEVWEGLWNNTTPVAVKTLKPGSMDPNDFLREAQIMKNLRHPKLIQLYAVCTLEDPIYIITELMRHGSLQEYLQNDTGSKIHLTQQVDMAAQVASGMAYLESRNYIHRDLAARNVLVGEHNIYKVADFGLARVFKVDNEDIYESRHEIKLPVKWTAPEAIRSNKFSIKSDVWSFGILLYEIITYGKMPYSGMTGAQVIQMLAQNYRLPQPSNCPQQFYNIMLECWNAEPKERPTFETLRWKLEDYFETDSSYSDANNFIR
